Experimental data: paper PMC6876990 (2019)

Molecular target: T1, Smac peptide AVPIAQKSEKY (Homo sapiens)
T1 chain: AVPIAQKSEKY
Test: ITC

Kd: 428 nM
B1: WT-XIAP BIR3 241-356 (protein)
chain: SDAVSSDRNFPNSTNLPRNPSMADYEARIFTFGTWIYSVNKEQLARAGFYALGEGDKVKCFHCGGGLTDWKPSEDPWEQHAKWYPGCKYLLEQKGQEYINNIHLTHSLEECLVRTT
